# Laboratory results reported in publication PMC10524338 (Structure (London, England : 1993), 2023).
# Where a chain is given by its changes, count along the chain named. In names and notes the source's numbering stands.
# T1: GST-Kapβ2 (UniProt Q92973-2 1-890)
# T1 sequence (looked up): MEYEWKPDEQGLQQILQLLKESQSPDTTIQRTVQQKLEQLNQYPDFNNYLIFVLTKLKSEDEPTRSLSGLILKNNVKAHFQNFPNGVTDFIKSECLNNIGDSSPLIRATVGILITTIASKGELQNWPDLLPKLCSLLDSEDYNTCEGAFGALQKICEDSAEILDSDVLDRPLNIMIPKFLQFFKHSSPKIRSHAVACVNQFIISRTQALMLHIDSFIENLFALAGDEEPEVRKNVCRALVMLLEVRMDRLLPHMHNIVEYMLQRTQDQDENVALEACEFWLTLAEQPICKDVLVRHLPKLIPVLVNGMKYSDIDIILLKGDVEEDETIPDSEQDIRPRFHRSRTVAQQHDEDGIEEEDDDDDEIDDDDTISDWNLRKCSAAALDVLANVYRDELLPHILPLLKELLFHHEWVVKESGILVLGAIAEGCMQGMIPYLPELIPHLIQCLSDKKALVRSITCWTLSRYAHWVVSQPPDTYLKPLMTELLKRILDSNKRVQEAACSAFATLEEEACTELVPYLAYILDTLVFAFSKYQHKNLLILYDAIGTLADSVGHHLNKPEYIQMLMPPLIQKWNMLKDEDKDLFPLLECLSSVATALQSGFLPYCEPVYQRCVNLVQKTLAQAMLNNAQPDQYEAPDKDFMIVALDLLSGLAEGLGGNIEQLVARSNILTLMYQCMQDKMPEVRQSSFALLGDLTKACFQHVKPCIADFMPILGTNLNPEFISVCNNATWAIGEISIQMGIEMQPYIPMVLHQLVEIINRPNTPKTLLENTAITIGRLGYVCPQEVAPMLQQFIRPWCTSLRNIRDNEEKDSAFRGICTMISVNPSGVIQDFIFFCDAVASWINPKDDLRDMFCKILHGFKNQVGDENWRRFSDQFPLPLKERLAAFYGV
# T2: Karyopherin-β2 (Kapβ2), wild type, GST tag removed (UniProt Q92973-2 1-890)
# T2 sequence (looked up): T1 sequence (looked up)
# T3: Kapβ2(W373A), GST tag removed (UniProt Q92973-2 1-890, W373A)
# T3 sequence (looked up): T1 sequence (looked up) with W373A
# B1: MBP-HNRNPH2(103-225) R212K (domain or fragment, UniProt P55795 103-225, looked up)
# chain: NSPDTANDGFVRLRGLPFGCSKEEIVQFFSGLEIVPNGMTLPVDFQGRSTGEAFVQFASQEIAEKALKKHKERIGHRYIEIFKSSRAEVRTHYDPPRKLMAMQRPGPYDKPGAGRGYNSIGRG
# B2: MBP-HNRNPH2(103-225) P213A (domain or fragment, UniProt P55795 103-225, looked up)
# chain: B1 chain with K110R, P111A
# B3: HNRNPH2(103-225) as in the cryo-EM sample (domain or fragment, UniProt P55795 103-225, looked up)
# chain: B1 chain with K110R
# modifications: mildly cross-linked to Kapβ2 with 0.025% glutaraldehyde
# B4: MBP-HNRNPH2(103-225) WT (domain or fragment, UniProt P55795 103-225, looked up)
# chain: B1 chain with K110R
# B5: MBP-HNRNPH2(103-225) R206Q (domain or fragment, UniProt P55795 103-225, looked up)
# chain: B1 chain with R104Q, K110R
# B6: MBP-HNRNPH2(103-225) R212A (domain or fragment, UniProt P55795 103-225, looked up)
# chain: B1 chain with K110A
# B7: MBP-HNRNPH2(103-225) P209L (domain or fragment, UniProt P55795 103-225, looked up)
# chain: B1 chain with P107L, K110R
# B8: MBP-HNRNPH2(103-225) R206W (domain or fragment, UniProt P55795 103-225, looked up)
# chain: B1 chain with R104W, K110R
# Target: T1, GST-Kapβ2
# Test: pull-down
row,binding result,Binder
1,binds,B1
2,binds,B2

# Target: T2, Karyopherin-β2 (Kapβ2), wild type, GST …
# Test: cryo-EM structure
row,binding result,Binder
1,binds,B3

# Target: T2, Karyopherin-β2 (Kapβ2), wild type, GST …
# Test: ITC
row,Kd,Binder
1,0.05 µM,B4
2,3.6 µM,B5
3,3.2 µM,B6
4,16.3 µM,B7
5,5.2 µM,B8
6,0.009 µM,"ERPAQNEKRKEKNIKRGGNRFEPYANPTKR (domain or fragment, UniProt P52272 41-70, looked up) [MBP-HNRNPM PY-NLS (41-70)]"
7,0.04 µM,"EVRTHYDPPRKLMAMQRPGPYDRPGAGRGYNSIGRG (domain or fragment, UniProt P55795 190-225, looked up) [MBP-HNRNPH2 PY-NLS (190-225)]"

# Target: T3, Kapβ2(W373A), GST tag removed
# Test: ITC
row,Kd,Binder
1,6.1 µM,B4
2,0.0045 µM,"ERPAQNEKRKEKNIKRGGNRFEPYANPTKR (domain or fragment, UniProt P52272 41-70, looked up) [MBP-HNRNPM PY-NLS (41-70)]"
